The series deals with MiaA C273A (Shigella flexneri, UniProt P59197 1-316, C273A). Put plainly: EMSA (2% agarose); 10 mM Mg2+; 100 uM 10-F05; binding only slightly decreased, largely unaffected. The note with it: protein: recombinant; tags: N-terminal His-tag (pET28a); label: none (GelRed stain); predicted two hairpin loops.

The values below come from paper PMC11995724.

Take GUUCAAUUGGUAGAGCACCGGUCUCCAAAACCGG (structured_RNA) [tRNATrp_34-base]: the binding result is listed as “binds”.
